B1: TP53 probe (putative TP53 site, Panomics) (dsDNA)
DNA 1: TACAGAACATGTCTAAGCATGCTGGGG
DNA 2: GCCCCAGCATGCTTAGACATGTTCTGTA
B2: wtFOXA1 probe (dsDNA)
DNA 1: GGAAAGTGCAAGTCTGGACATGTTTATCAAGAGG
DNA 2: CCTCTTGATAAACATGTCCAGACTTGCACTTTC

Tests used:
[1] = molecular target: T1, TP53 (recombinant human, Calbiochem 506165) (human, UniProt P04637 1-393); experiment: EMSA; anti-TP53 antibody tested; EMSA as in a cited earlier paper; buffer, salt, pH and temperature not given; competitor 100x excess added 10 min before probe; antibody preincubation 1 h on ice; conditions: protein: commercial; chain copies: 4; label: 32P (Klenow fill-in with [alpha-32P]-dCTP); 5' overhang 1 nt (G) on strand 2, filled in with labelled dC
T1 sequence (P04637 whole entry): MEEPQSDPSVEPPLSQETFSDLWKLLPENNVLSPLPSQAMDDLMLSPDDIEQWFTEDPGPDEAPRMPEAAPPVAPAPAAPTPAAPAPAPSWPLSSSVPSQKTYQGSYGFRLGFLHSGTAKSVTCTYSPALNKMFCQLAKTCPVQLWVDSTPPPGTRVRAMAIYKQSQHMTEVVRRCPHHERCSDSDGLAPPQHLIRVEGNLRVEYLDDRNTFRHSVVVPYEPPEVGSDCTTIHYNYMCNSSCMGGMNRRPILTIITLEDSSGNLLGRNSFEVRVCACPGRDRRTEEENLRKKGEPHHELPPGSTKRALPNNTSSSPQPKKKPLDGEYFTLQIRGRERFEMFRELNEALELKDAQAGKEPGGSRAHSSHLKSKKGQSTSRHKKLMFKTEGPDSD

[2] = molecular target: T1, TP53 (recombinant human, Calbiochem …); experiment: EMSA; shifted band faded by anti-TP53 antibody; EMSA as in a cited earlier paper; buffer, salt, pH and temperature not given; competitor 100x excess added 10 min before probe; antibody preincubation 1 h on ice; conditions: protein: commercial; chain copies: 4; label: 32P (Klenow fill-in with [alpha-32P]-dCTP); 5' overhang 1 nt (G) on strand 1, filled in with labelled dC

Row | Binder | binding result [1] | binding result [2]
1 | B1 | binds | –
2 | B2 | – | binds
